Source: IntAct's records for PubMed 17442384

B1: Suppressor protein STP22 of temperature-sensitive alpha-factor receptor and arginine permease (Saccharomyces cerevisiae), P25604 (parent)
chain: MSANGKISVPEAVVNWLFKVIQPIYNDGRTTFHDSLALLDNFHSLRPRTRVFTHSDGTPQLLLSIYGTISTGEDGSSPHSIPVIMWVPSMYPVKPPFISINLENFDMNTISSSLPIQEYIDSNGWIALPILHCWDPAAMNLIMVVQELMSLLHEPPQDQAPSLPPKPNTQLQQEQNTPPLPPKPKSPHLKPPLPPPPPPQPASNALDLMDMDNTDISPTNHHEMLQNLQTVVNELYREDVDYVADKILTRQTVMQESIARFHEIIAIDKNHLRAVEQAIEQTMHSLNAQIDVLTANRAKVQQFSSTSHVDDEDVNSIAVAKTDGLNQLYNLVAQDYALTDTIECLSRMLHRGTIPLDTFVKQGRELARQQFLVRWHIQRITSPLS
partner: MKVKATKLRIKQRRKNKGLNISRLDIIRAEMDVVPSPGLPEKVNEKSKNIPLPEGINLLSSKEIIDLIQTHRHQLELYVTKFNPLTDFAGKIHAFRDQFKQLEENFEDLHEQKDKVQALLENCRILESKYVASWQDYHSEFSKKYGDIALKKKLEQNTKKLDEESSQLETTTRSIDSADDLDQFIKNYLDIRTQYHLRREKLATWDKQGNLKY
B2: Multivesicular body sorting factor 12 (Saccharomyces cerevisiae), P42939 (parent)
chain: MNNNVEELLRRIPLYNKYGKDFPQETVTRFQMPEFKLPALQPTRDLLCPWYEECDNITKVCQLHDSSNKKFDQWYKEQYLSKKPPGIVGNTLLSPSRKDNS
partner: B1 chain
B3: Suppressor protein STP22 of temperature-sensitive alpha-factor receptor and arginine permease (Saccharomyces cerevisiae), P25604 (parent)
chain: B1 chain
partner: B2 chain
B4: Multivesicular body sorting factor 12 (Saccharomyces cerevisiae), P42939 (parent)
chain: B2 chain
partner: B1 partner

Variants of: B1
Conditions: with srn2_yeast SRN2, Q99176

effect of a mutation on the interaction | Variant
decreasing interaction | MSANGKISVPEAVVNWLFKVIQPIYNDGRTTFHDSLALLDNFHSLRPRTRVFTHSDGTPQLLLSIYGTISTGEDGSSPHSIPVIMWVPSMYPVKPPFISINLENFDMNTISSSLPIQEYIDSNGWIALPILHCWDPAAMNLIMVVQELMSLLHEPPQDQAPSLPPKPNTQLQQEQNTPPLPPKPKSPHLKPPLPPPPPPQPASNALDLMDMDNTDISPTNHHEMLQNLQTVVNELYREDVDYVADKILTRQTVDQESIARFHEIIAIDKNHLRAVEQAIEQTMHSLNAQIDVLTANRAKVQQFSSTSHVDDEDVNSIAVAKTDGLNQLYNLVAQDYALTDTIECLSRMLHRGTIPLDTFVKQGRELARQQFLVRWHIQRITSPLS [M254D]

Variants of: B2
Conditions: with stp22_yeast STP22, P25604

effect of a mutation on the interaction | Variant
decreasing interaction | MNNNVEELLRRIPLYNKYGKDFPQETVTRFQMPEFKLPALQPTRDLDCPWYEECDNDTKVCQLHDSSNKKFDQWYKEQYLSKKPPGIVGNTLLSPSRKDNS

Variants of: B3
Conditions: with mvb12_yeast MVB12, P42939

effect of a mutation on the interaction | Variant
decreasing interaction | MSANGKISVPEAVVNWLFKVIQPIYNDGRTTFHDSLALLDNFHSLRPRTRVFTHSDGTPQLLLSIYGTISTGEDGSSPHSIPVIMWVPSMYPVKPPFISINLENFDMNTISSSLPIQEYIDSNGWIALPILHCWDPAAMNLIMVVQELMSLLHEPPQDQAPSLPPKPNTQLQQEQNTPPLPPKPKSPHLKPPLPPPPPPQPASNALDLMDMDNTDISPTNHHEMLQNLQTVVNELYREDVDYVADKILTRQTVDQESIARFHEIIAIDKNHLRAVEQAIEQTMHSLNAQIDVLTANRAKVQQFSSTSHVDDEDVNSIAVAKTDGLNQLYNLVAQDYALTDTIECLSRMLHRGTIPLDTFVKQGRELARQQFLVRWHIQRITSPLS [M254D]

Variants of: B4
Conditions: with srn2_yeast SRN2, Q99176

effect of a mutation on the interaction | Variant
decreasing interaction | MNNNVEELLRRIPLYNKYGKDFPQETVTRFQMPEFKLPALQPTRDLDCPWYEECDNDTKVCQLHDSSNKKFDQWYKEQYLSKKPPGIVGNTLLSPSRKDNS
